Results published in patent US20160304570A1.
Read-outs that look alike come from different tables or passages of the source. Non-standard residues stand in square brackets, D forms with d. Groups on a side chain read outwards from the residue. Primed or numbered codes have the meaning given here. No end group written: not given here. *: point of attachment. X2 = ((2-hydroxyethyl)thio)acetamide, O=C(CSCCO)*; PEG11′ = not defined here; 4‑Pen = not defined here; Pra = C#CC[C@H](N)C(=O)O; Nva = CCC[C@H](N)C(=O)O; Abu = CC[C@H](N)C(=O)O; Atz = not defined here

Assays:
Assay in all cases: cell-based or functional assay
[1] = biological target: human Nav1.7 voltage-gated sodium channel (human) (UniProt Q15858)
[2] = biological target: human Nav1.3 voltage-gated sodium channel (human) (UniProt Q9NY46)
[3] = biological target: human Nav1.5 voltage-gated sodium channel (human) (UniProt Q14524)
[4] = biological target: human voltage-gated sodium channel Nav1.3 (human) (UniProt Q9NY46)
[5] = biological target: human voltage-gated sodium channel Nav1.7 (human) (UniProt Q15858)
[6] = biological target: human voltage-gated sodium channel Nav1.4 (human) (UniProt P35499)
[7] = biological target: human voltage-gated sodium channel Nav1.5 (human) (UniProt Q14524)
[8] = biological target: human voltage-gated sodium channel Nav1.7 (human) (UniProt Q15858); remark: listed apart in the source
[9] = biological target: human Nav1.4 voltage-gated sodium channel (human) (UniProt P35499)
[10] = biological target: human voltage-gated sodium channel Nav1.4 (human) (UniProt P35499); remark: listed apart in the source
[11] = biological target: human voltage-gated sodium channel Nav1.5 (human) (UniProt Q14524); remark: listed apart in the source

human Nav1.5 voltage-gated sodium channel (human), sequence (Q14524 whole entry): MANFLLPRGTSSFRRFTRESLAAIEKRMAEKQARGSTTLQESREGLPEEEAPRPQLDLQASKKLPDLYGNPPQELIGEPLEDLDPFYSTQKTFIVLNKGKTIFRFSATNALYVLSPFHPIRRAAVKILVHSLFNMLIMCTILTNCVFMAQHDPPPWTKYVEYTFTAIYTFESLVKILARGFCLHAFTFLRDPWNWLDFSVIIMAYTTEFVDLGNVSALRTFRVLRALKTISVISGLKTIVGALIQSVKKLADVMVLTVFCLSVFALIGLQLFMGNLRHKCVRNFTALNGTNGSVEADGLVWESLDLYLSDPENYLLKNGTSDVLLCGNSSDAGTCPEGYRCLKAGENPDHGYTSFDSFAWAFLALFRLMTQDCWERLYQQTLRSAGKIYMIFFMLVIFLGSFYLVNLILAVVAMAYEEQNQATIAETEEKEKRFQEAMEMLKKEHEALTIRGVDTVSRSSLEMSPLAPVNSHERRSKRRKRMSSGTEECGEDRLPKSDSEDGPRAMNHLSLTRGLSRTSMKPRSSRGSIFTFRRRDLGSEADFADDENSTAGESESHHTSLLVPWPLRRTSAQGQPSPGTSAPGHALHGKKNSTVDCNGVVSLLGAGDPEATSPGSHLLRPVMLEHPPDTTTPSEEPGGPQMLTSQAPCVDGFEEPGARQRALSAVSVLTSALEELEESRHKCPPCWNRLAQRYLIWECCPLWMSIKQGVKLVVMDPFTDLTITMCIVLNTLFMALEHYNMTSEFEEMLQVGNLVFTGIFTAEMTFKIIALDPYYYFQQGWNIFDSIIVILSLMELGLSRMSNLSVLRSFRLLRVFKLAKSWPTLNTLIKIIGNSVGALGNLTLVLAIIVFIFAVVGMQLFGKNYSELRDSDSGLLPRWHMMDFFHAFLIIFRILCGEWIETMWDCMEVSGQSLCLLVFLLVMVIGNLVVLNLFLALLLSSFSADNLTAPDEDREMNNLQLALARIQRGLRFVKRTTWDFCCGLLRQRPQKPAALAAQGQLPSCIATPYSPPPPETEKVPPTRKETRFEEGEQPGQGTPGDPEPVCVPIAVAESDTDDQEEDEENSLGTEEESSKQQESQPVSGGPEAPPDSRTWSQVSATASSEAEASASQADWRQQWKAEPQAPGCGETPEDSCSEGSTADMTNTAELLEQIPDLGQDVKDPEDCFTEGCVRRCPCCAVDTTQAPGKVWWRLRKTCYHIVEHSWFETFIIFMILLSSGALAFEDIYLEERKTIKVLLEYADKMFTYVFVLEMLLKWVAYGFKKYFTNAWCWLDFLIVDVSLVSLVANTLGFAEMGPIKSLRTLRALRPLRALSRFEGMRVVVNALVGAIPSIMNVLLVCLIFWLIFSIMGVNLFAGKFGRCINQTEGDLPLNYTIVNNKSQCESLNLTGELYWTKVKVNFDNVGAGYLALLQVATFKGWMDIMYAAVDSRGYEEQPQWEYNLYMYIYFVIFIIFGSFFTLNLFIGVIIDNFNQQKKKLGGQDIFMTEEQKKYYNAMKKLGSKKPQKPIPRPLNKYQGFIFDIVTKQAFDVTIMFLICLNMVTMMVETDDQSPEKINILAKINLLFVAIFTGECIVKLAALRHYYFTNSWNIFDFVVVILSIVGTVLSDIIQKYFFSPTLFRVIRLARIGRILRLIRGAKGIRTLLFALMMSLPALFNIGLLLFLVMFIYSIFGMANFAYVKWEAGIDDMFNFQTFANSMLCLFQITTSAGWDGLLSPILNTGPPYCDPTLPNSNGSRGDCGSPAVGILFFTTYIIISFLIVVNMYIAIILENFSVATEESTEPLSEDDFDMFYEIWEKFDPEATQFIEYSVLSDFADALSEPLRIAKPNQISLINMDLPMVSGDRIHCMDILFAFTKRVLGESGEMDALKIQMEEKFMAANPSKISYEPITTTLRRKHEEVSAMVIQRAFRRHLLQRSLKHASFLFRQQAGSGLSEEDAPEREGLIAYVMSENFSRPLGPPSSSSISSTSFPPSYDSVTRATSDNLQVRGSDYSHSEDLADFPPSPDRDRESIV
human voltage-gated sodium channel Nav1.5 (human), sequence (Q14524 whole entry): as above

[Nva5;Leu6;K(4-Pen)13;Arg28]GpTx-1(1-34) (peptide)
IWQ Use Nav1.7 IC50 (IonWorks Quattro electrophysiology) [1]: 0.31 µM
IWQ Use Nav1.3 IC50 (IonWorks Quattro electrophysiology) [2]: 0.27 µM
IWQ Use Nav1.5 IC50 (IonWorks Quattro electrophysiology) [3]: 37.5 µM

[Ala5;Phe6;Thr13;Arg28]GpTx-1(1-34)-FreeAcid (peptide)
IWQ Use Nav1.3 IC50 [4]: 1.3 µM

Biotin-Ahx-[2-Abu5,13;Leu6;Arg28]GpTx-1(1-34) (peptide)
Nav1.7 Use IC50 (µM), PatchXpress electrophysiology [5]: 0.011 µM
Nav1.4 Use IC50 (µM), PatchXpress electrophysiology [6]: 27.3 µM
Nav1.5 Use IC50 (µM), PatchXpress electrophysiology [7]: > 10 µM

((2-Hydroxyethyl)thio)acetamide-NPEG11-triazole-[2-Abu5,13;Leu6;Arg28]GpTx-1(1-34) (peptide)
Nav1.7 Use IC50 (PatchXpress electrophysiology, inhibition of sodium current) [5]: 0.087 µM
Nav1.4 Use IC50 (PatchXpress electrophysiology, inhibition of sodium current) [6]: > 10 µM
Nav1.5 Use IC50 (PatchXpress electrophysiology, inhibition of sodium current) [7]: > 10 µM

[Ala5;Phe6;Gly13;Arg28]GpTx-1(1-34)-FreeAcid (peptide)
IWQ Use Nav1.3 IC50 [4]: 1.5 µM

[Ala5;Phe6;Pro13;Arg28]GpTx-1(1-34)-FreeAcid (peptide)
IWQ Use Nav1.7 IC50 [8]: 2.9 µM
IWQ Use Nav1.3 IC50 [4]: 2.9 µM

[Ala5;Phe6;Leu13;Arg28]GpTx-1(1-34)-FreeAcid (peptide)
IWQ Use Nav1.7 IC50 [8]: 4.5 µM
IWQ Use Nav1.3 IC50 [4]: 4.5 µM

[Ala5;Phe6;Pra12;Leu26;Arg28]GpTx-1(1-34) (peptide)
IWQ Use Nav1.7 IC50 (IonWorks Quattro electrophysiology) [1]: 0.13 µM
IWQ Use Nav1.3 IC50 (IonWorks Quattro electrophysiology) [2]: 0.12 µM
IWQ Use Nav1.5 IC50 (IonWorks Quattro electrophysiology) [3]: 36.5 µM

[Ala5;Phe6;Glu10;Atz(PEG3-((2-hydroxyethyl)thio)acetamide)13;Leu26;Arg28]GpTx-1(1-34) (peptide)
Nav1.7 Use IC50 (PatchXpress electrophysiology, inhibition of sodium current) [5]: 0.013 µM
Nav1.4 Use IC50 (PatchXpress electrophysiology, inhibition of sodium current) [6]: 5.95 µM
Nav1.5 Use IC50 (PatchXpress electrophysiology, inhibition of sodium current) [7]: > 10 µM

[Ala5;Phe6;K(Ac-Pra)13;Arg28]GpTx-1(1-34) (peptide)
IWQ Use Nav1.7 IC50 (IonWorks Quattro electrophysiology) [1]: 0.78 µM
IWQ Use Nav1.4 IC50 (IonWorks Quattro electrophysiology) [9]: 18 µM
IWQ Use Nav1.3 IC50 (IonWorks Quattro electrophysiology) [2]: 0.25 µM
IWQ Use Nav1.5 IC50 (IonWorks Quattro electrophysiology) [3]: 24.6 µM

[Ala5;Phe6;Glu10;K(Biotin)13;Leu26;Arg28]GpTx-1(1-34) (peptide)
Nav1.7 Use IC50 (µM), PatchXpress electrophysiology [5]: 0.015 µM
Nav1.4 Use IC50 (µM), PatchXpress electrophysiology [6]: 7.13 µM
Nav1.5 Use IC50 (µM), PatchXpress electrophysiology [7]: > 10 µM

B1: [Ala5;Leu6;His13;Arg28]GpTx-1(1-34)-FreeAcid (peptide)
peptide: DCLGALRKCIPDHDKCCRPNLVCSRTHRWCKYVF-OH
modifications: ends and bridges not checked
IWQ Use Nav1.7 [8]: > 5 µM
IWQ Use Nav1.4 [10]: > 5 µM
IWQ Use Nav1.3 [4]: 3.9 µM
IWQ Use Nav1.5 [11]: > 5 µM

B2: [Ala5;Leu6,26;Glu10;Atz(PEG11-((2-hydroxyethyl)thio)acetamide)13;Arg28]GpTx-1(1-34) (peptide)
peptide: DCLGALRKCEPD[Atz]([PEG11′-X2])DKCCRPNLVCSRLHRWCKYVF
modifications: ends and bridges not checked; also: printed as [Ala5;Leu6,26;Glu10;Atz(PEG11-((2-hydroxyethyl)thio)acetamide)13;Arg28]GpTx-1(1-34)
Nav1.7 Use IC50 (PatchXpress electrophysiology, inhibition of sodium current) [8]: 0.054 µM
Nav1.4 Use IC50 (PatchXpress electrophysiology, inhibition of sodium current) [10]: > 10 µM
Nav1.5 Use IC50 (PatchXpress electrophysiology, inhibition of sodium current) [11]: > 10 µM

B3: [2-Abu5;Leu6;K(4-Pen)13;Glu28]GpTx-1(1-34) (peptide)
peptide: DCLG[Abu]LRKCIPDK(4‑Pen)DKCCRPNLVCSRTHEWCKYVF
modifications: ends and bridges not checked
IWQ Use Nav1.7 IC50 (IonWorks Quattro electrophysiology) [1]: 1.8 µM
IWQ Use Nav1.4 IC50 (IonWorks Quattro electrophysiology) [9]: > 5 µM
IWQ Use Nav1.3 IC50 (IonWorks Quattro electrophysiology) [2]: 4.1 µM
IWQ Use Nav1.5 IC50 (IonWorks Quattro electrophysiology) [3]: > 5 µM

B4: [2-Abu2,17;Ala5;Leu6;Glu28]GpTx-1(1-34) (peptide)
peptide: D[Abu]LGALRKCIPDNDKC[Abu]RPNLVCSRTHEWCKYVF
modifications: ends and bridges not checked
IWQ Use Nav1.7 (µM) (IC50, IonWorks Quattro population patch clamp) [8]: 4.3 µM
IWQ Use Nav1.4 (µM) (IC50, IonWorks Quattro population patch clamp) [10]: > 50 µM
IWQ Use Nav1.3 (µM) (IC50, IonWorks Quattro population patch clamp) [4]: > 5 µM
IWQ Use Nav1.5 (µM) (IC50, IonWorks Quattro population patch clamp) [11]: > 50 µM

B5: [2-Abu2,17;Val5;Leu6;Glu28]GpTx-1(1-34) (peptide)
peptide: D[Abu]LGVLRKCIPDNDKC[Abu]RPNLVCSRTHEWCKYVF
modifications: ends and bridges not checked
IWQ Use Nav1.7 (µM) (IC50, IonWorks Quattro population patch clamp) [8]: > 5 µM
IWQ Use Nav1.4 (µM) (IC50, IonWorks Quattro population patch clamp) [10]: > 50 µM
IWQ Use Nav1.3 (µM) (IC50, IonWorks Quattro population patch clamp) [4]: > 5 µM
IWQ Use Nav1.5 (µM) (IC50, IonWorks Quattro population patch clamp) [11]: 33 µM

B6: [2-Abu2,17;Nva5;Leu6;Glu28]GpTx-1(1-34) (peptide)
peptide: D[Abu]LG[Nva]LRKCIPDNDKC[Abu]RPNLVCSRTHEWCKYVF
modifications: ends and bridges not checked
IWQ Use Nav1.7 (µM) (IC50, IonWorks Quattro population patch clamp) [8]: > 5 µM
IWQ Use Nav1.4 (µM) (IC50, IonWorks Quattro population patch clamp) [10]: > 50 µM
IWQ Use Nav1.3 (µM) (IC50, IonWorks Quattro population patch clamp) [4]: > 5 µM
IWQ Use Nav1.5 (µM) (IC50, IonWorks Quattro population patch clamp) [11]: > 50 µM

B7: [2-Abu2,5,17;Leu6;Glu28]GpTx-1(1-34) (peptide)
peptide: D[Abu]LG[Abu]LRKCIPDNDKC[Abu]RPNLVCSRTHEWCKYVF
modifications: ends and bridges not checked
IWQ Use Nav1.7 (µM) (IC50, IonWorks Quattro population patch clamp) [8]: 4.3 µM
IWQ Use Nav1.4 (µM) (IC50, IonWorks Quattro population patch clamp) [10]: > 50 µM
IWQ Use Nav1.3 (µM) (IC50, IonWorks Quattro population patch clamp) [4]: > 5 µM
IWQ Use Nav1.5 (µM) (IC50, IonWorks Quattro population patch clamp) [11]: > 50 µM

B8: [Ala5;Leu6,26;Glu10;Pra13;Arg28]GpTx-1(1-34) (peptide)
peptide: DCLGALRKCEPD[Pra]DKCCRPNLVCSRLHRWCKYVF
modifications: ends and bridges not checked
IWQ Use Nav1.7 IC50 (IonWorks Quattro electrophysiology) [1]: 0.7 µM
IWQ Use Nav1.4 IC50 (IonWorks Quattro electrophysiology) [9]: > 50 µM
IWQ Use Nav1.3 IC50 (IonWorks Quattro electrophysiology) [2]: 1.4 µM
Nav1.7 Use IC50 (µM), electrophysiology by PatchXpress [8]: 0.013 µM
Nav1.4 Use IC50 (µM), electrophysiology by PatchXpress [10]: > 10 µM
IWQ Use Nav1.5 IC50 (IonWorks Quattro electrophysiology) [3]: > 50 µM
Nav1.5 Use IC50 (µM), electrophysiology by PatchXpress [11]: > 10 µM
